In PMC6201368:

B1: SCN1Bβ/WT (Navβ1b, sodium channel beta1b subunit) [human] / Kv4.3 (KCND3/WT) [human] (parent)
chain 1: GGCVEVDSETEAVYGMTFKILCISCKRRSETNAETFTEWTFRQKGTEEFVKILRYENEVLQLEEDERFEGRVVWNGSRGTKDLQDLSIFITNVTYNHSGDYECHVYRLLFFENYEHNTSVVKKIHIEVVDKGESGAACPFTVTHRRARWRDRWQAVDRTGWLCAWPANRPQQRAEGEGSSPSCPLQLWPLFLSSPRRGQSMPVPHRRSGYRTQLCHLCCMTSGRCLLSLSQRVVLGLPGIIIRCVSRGVV
chain 2: MAAGVAAWLPFARAAAIGWMPVANCPMPLAPADKNKRQDELIVLNVSGRRFQTWRTTLERYPDTLLGSTEKEFFFNEDTKEYFFDRDPEVFRCVLNFYRTGKLHYPRYECISAYDDELAFYGILPEIIGDCCYEEYKDRKRENAERLMDDNDSENNQESMPSLSFRQTMWRAFENPHTSTLALVFYYVTGFFIAVSVITNVVETVPCGTVPGSKELPCGERYSVAFFCLDTACVMIFTVEYLLRLFAAPSRYRFIRSVMSIIDVVAIMPYYIGLVMTNNEDVSGAFVTLRVFRVFRIFKFSRHSQGLRILGYTLKSCASELGFLLFSLTMAIIIFATVMFYAEKGSSASKFTSIPASFWYTIVTMTTLGYGDMVPKTIAGKIFGSICSLSGVLVIALPVPVIVSNFSRIYHQNQRADKRRAQKKARLARIRVAKTGSSNAYLHSKRNGLLNEALELTGTPEEEHMGKTTSLIESQHHHLLHCLEKTTGLSYLVDDPLLSVRTSTIKNHEFIDEQMFEQNCMESSMQNYPSTRSPSLSSHPGLTTTCCSRRSKKTTHLPNSNLPATRLRSMQELSTIHIQGSEQPSLTTSRSSLNLKADDGLRPNCKTSQITTAIISIPTPPALTPEGESRPPPASPGPNTNIPSIASNVVKVSAL

Variants of: B1
Assay: co-immunoprecipitation (IP anti-KCND3, immunoblot anti-SCN1Bβ), band quantification
Details: with Kv4.3 (KCND3/WT) [human]; HEK293 cells co-transfected with KCND3/WT and SCN1Bβ; parent: 1; read off a plot

Variant	ratio to parent
chain 1 S230R	1
chain 1 R232T	1.2
